From the nanobody polyreactivity screen of Harvey et al. (2022)

Assay: yeast display, Sf9 membrane polyspecificity reagent, FACS + sequencing; frameworks hold sequencing errors
In short: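 Polyreactivity labels are assigned by the sorting gate from which each nanobody was recovered. The gates were low and high (top ~1%), set on anti-HA fluorescence for expression and streptavidin fluorescence for reagent binding. Before sorting, galactose-induced (36–48 hours) yeast display cells were stained for 1 hour at 4 °C with 10% biotinylated, detergent-solubilized Sf9 membrane reagent.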

Sequence | polyreactivity (PSR sort gate)
QVQLVESGGGLVQAGGSLRLSCAASGRIFSYYAMGWYRQAPGKERELVATISYSGGSTYYADSVKGRFTISRDNAKNTVYLQMNSLKPEDTAVYYCAATRYPYYSFVRFPSRRFNYWGQGTQVTVSS | high polyreactivity
QVQLVESGGGLVQAGGSLRLSCASSGTFHKYAMGWYRQAPGKERELVASISRSGGSTSYADSVKGRFTISRDNAKNNVYLQMNSLKPEDTAVYYCNTPWGAYKYDYWGQGTEVTVSS | high polyreactivity
QVQLVESGGGLVQAGGSLRLSCAASGSTLPSNTMGWYRQAPGKERELVAAISRNGGSTYYADSVKGRFTISRDNAKNTVYLQMNSLKPEDTAVYYCNRVYRERYPYVLYGYWGQGTQVTVSS | high polyreactivity
QVQLVESGGGLVQAGGSLRLSCAASGFTFRVYAMGWYRQAPGKERELVAVISGTGGRTYYADSVKGRFTISRDIAKNTVYLQMNSLKPEDTAVYYCARRGRPPAIYDYWGQGTQVTVSS | high polyreactivity
QVQLVESGGGLVQAGGSLRLSCAASGSTFSYYTMGWSRQAPGKERELVAAISRGGSTNYADSVKGRFTISRDNAKNTVYLQMNSLKPEDTAVYYCAAEPGRTKRYKVRMDYWGQGTQVTVSS | high polyreactivity
QVQLVESGGGLVQAGGSLRLSCAAYGIIFNSYFMGWYRPAPGKERELVAAITGSCGRTYYADSVKGRFTISRDNAKNTVYLQIISLKPEDTAVYYCSATNRGQVYGAWYNSWGQGTQVTVSS | high polyreactivity
QVQLVESGGGLVQAGGSLRLSCAASGSTFYNYAMGWYRQAPGKERELVAAISSGGGITYYADSVKGRFTISRDNAKNTVYLQMNSLKPEDTAVYYCNARRKYLGYNYWGQGSQVTVSS | high polyreactivity
QVQLVESGGGLVQAGGSLRLSCAASGITFGGYAMGWYRKAPGKERELVAAITSSGGITYYADSVKGRFTISRDNAKKTVYLLLNSLKPEDTAVYYCAKVPLEIVTIRDDEDYWGQGTQVTVSS | low polyreactivity
QVQLVESGGGLVQSGGSLRLSCAASGSIFDFYAMGWHRQAPGKERELVATITASGGSTYYADSVKGRFTISRDNAKITVYLQMNSLKPVDTAVYYCNADSVYWGQGTQVTVSS | low polyreactivity
QVQLVESGGGLVQAGGSLRLSCAASGRIFATNAMGWYRQAPGKEMELVATITRSAGRTYYADSVKGRFTISRDNAKNTVYLQMNSLKPEDTAVYYCAASYWDTEPGYREYDYWGQGTQVTVSS | low polyreactivity
QVQLVESGGGLVQAGGSLRLSCAASGFTFYSNAMGWYRQAPGKERELVAAITSSGGSTYYADSVKGRFTISRDNAKNTVYLQMNSLKPEDTAVDYCNVRVGYRRYGYWGQGTQVTVSS | high polyreactivity
QVQLVESGGGLDQAGGSLRLSCAASGFTFYWYAMGWYRQAPGKEREFVAAIDQSGGSTYYADSVKGRFTISRDNAKNNVYLQMNSLKPEDTAVYYCAKLYNIGYDYWGLGTQVTVSS | low polyreactivity
QVQLVESGGGLVQAGGSLRLSCAASGRTFKYYGMGWYRQAPGKERELVATISRSSSRTYYADSVKGRFTISRDNAKNTVYLQMNSLKPEDTAFYYCATLGPRSYAYDYWGQGTQVTVSS | high polyreactivity
QVQLVESGGGLVQAGGSLRLSCAASGITFVWNAMGWYRQAPGKERELVATISRGGVRTYYADSVKGRFTISRDNAKNTVYLQMNSLKPEDTAVYYCNKRYWYPSSLHWTSFRGYDYWGQGTQVTVSS | low polyreactivity
QVQLVESGGGLYQAGGSLRLNCAASGYIFQTYAMVWYRQAPGKEREFVAAITSGAGRTSYADSVKGRFTISRDNAKNTVYLELNSLIPEVTAVYYCNARGRKRSYHRKSSDPYGYWGQGNQVTVSS | high polyreactivity
QVQLVESGGGLVQAGGSLRLSCAASGSTFSGYVMGWYRQAPGKERELVAAISSSGGGSTYYADSVKGRFTISRDNAKNTVYLQMNSLKPEDTAVYYCAARNYRKYDYWGQGTQVTVSS | high polyreactivity
QVQLVESGGGLVQAGGSLRLSCAASGSTFPVNAMGWYRQAPGKERELVAAITYRDGDTYYADSVKGRFTISRDNAKNTVYLEMHSLKPEDTAVYYCNADVGRHGKNRHMDYWGQGTQVTVSS | low polyreactivity
QVQLVESGGGLVQAGGSLRLSCAASGRIFRLYVMGWYRQAPGKERELVATISSRGGSTYYADSVKGRFTISRDNAKNTVYLQMNSLKPEDTAVYYCAAVSRYRYGYDYWGQGTQVTVSS | high polyreactivity
QVQLVESGGGLVQAGGSLRLSCAASGSTFRNNAMGWYRQAPGKERELVAAISRGGGSTYYADSVKGRFTISRDNAKNTVYLQMNSLKPEDTAVYYCARRPTGIYDYWGQGTQVTVSS | high polyreactivity
QVQLVESGGGLVQAGGSLRLSCAASGLSFYPNGMGWYREAPGKERELVAAITYSDGSTYYADSVKGRFSISRDNAKNTVYLQMNSLKPEDTAVYYGNRVTRWTYNYWGQGTQVTVSS | high polyreactivity
QVQLVESGGGLVQAGGSLRLSCAASGMTLGSYAMGWDRQAPGKERELVAAISRRSGRTYYADSVKGRFTISRDNAKNTVYLKMNSLKPEDTAVFYCNRGYTAQVYTEFDDWGQGTQVTVSS | low polyreactivity
QVQLVESGGGLVQAGGSLRLSCAASGRTFAYNAMGWYRQAPGKERELVAAITFGGGSTYYADSVKGRFTISRDNAKNTVYLQMNSLKPEDTAVYYCTAERGYYYHFGYWGQGTQVTVSS | high polyreactivity

Sequence | polyreactivity (PSR sort gate)
QVQLVESGGGLVQAGGSHRLSCAAYGSIFATNAMGWYRQAPGKERELVASISYSVSRTYYADSVKGRFTISRDNSMNTVYLQMNSMKPEDTAFYYSAVRQVNWFGIGYEDDYWGQGTQVTVSS | low polyreactivity
QVQLVESGGGLVQAGGSLRLSCAASGIIVEYYTMGWKRQAPGKERELVASITYDGDTTYYADSVKGRFTISRDNAKITVYLQMNSRKPEDTAVYYCAADYYYVYSSFGHYYWGQGTQVTVSS | low polyreactivity
QVQLVESGGGLVQAGGRLRLSCAASGSTFRYYALGWYRQAPGKERELVAVISSTGSRTNYADSVKGRFTISRDNAKNTVYLQMNSLKPEHTAVYYCAADTTRRAPGYYYWGQGTQETVSS | high polyreactivity
QVQLVESGGGLVQAGGSLPLSCAASGRIFYTYAMGWYRQAPGKERELVAAITYRGGSTYYADSVKGRFTISRDNAKNTVYLQMNILIPEDTAVYYCAARPGRGPDSRWRYKYDYWGQGTQVTVSS | high polyreactivity
QDQLVESGGGLVQAGGSLRLSCASYGSTFGANAMGWYRQAHGKARELVATISSGGRTYYADSVKGRFTISRDNAKITVYLQMNSLKPEDTAVYYCNAGADYTYVYISVYVLYDYLGQGTQVTVSS | low polyreactivity
QVQLVESGGGLVQAGGSLRLSCAASGSTLTYNAMGWYRQAPGKERELVADITS | low polyreactivity
QVQLVESGGGLVQAGGSLRLSCAASGLTLIRYAMGWYRQAPGKERELVAAISWSGGSTYYADSVKGRFTISRDNAKNTVYLQMNSLKPEDTAVYYCNTVYRYPDEYDYWGQGTQVTVSS | high polyreactivity
QVQLVESGGGLVQAGGSLRLSCAASGFIFFGEYVRGWYRQAPRKEREFVAAITDSDGSTYYADSVKGRFTISRDNAKNTVYLQMNSLKPEDTAVYYCAAERVYSDIDYWGKGTQVTVSS | low polyreactivity
QVQLVESGGGLVQAGASLRLSCAASGSIFRGNAMGWYRQAPGKERQLVAAITRSGGRTYYADSVKGRFTISRDNAKNTVYLQMISMKPEDTAVYYCAAVSSYSRYRRTYYYWGHGTQVTVSS | high polyreactivity
QVQLVESGGGLVQAGGSLRLSCAASGNIFAFYAMGWYRQAPGKERELVADISWSGASTYYADSVKGRFTISRDNAKNTVYLQMNSLKPEDTAVYYCAAYATYYVIFYGDEYWGQGTQVTVSS | high polyreactivity
QVQLVESGGGLVQAGGSLRLSCAASGFIFGFYAMGWYRQAPGKERELVAAISWSGGSTYYADSVKGRFTISRDNAKNTVYLQMNSLKPEDTAGYYCAAYFYYLDDAVTYDYWGQGTQVTVSS | low polyreactivity
QVHLVESGGGLVKAGGSLRLSCAASGLTFSYYARGWSRQPPGKEMELVAANSWSGGSTYYADSVKGRFTISRDNAKNTVYLQMNSLKPEDTAVYDCAVRPSDGVIFSKGYDHWGQGTQVTVSS | low polyreactivity
QVHLVESGGGLVLAGGSLRLSCAASGSTLHLYAMGWYRQAPGKERELVADITSGGDTYYADSVKGRFTISRDNAKNTVYFQMNSLKPEDTAVYYCAAGPVYDWRGGALRYYYWGQGTQVSVSS | high polyreactivity
QVQLVESGGGLVQAGGSLRLSCAASGSIFGSYAMGWYRQAPGKERELVAAISRRGGSTYYADSVKGRFTISRDNAKNTVYLQMNSLKPEDTAVYYCAARWPTGRNGYWGQGTQVTVSS | high polyreactivity
QVQLVESGGGLVQAGGSLRLSCAASGIIFRNYAMGWYRQAPGKERELVATIRYRGGRTYADSVKGRFTISRDNAKNTVYLQMNSLKPEDTAVYYCNTYARYAYLTGRMEYWGQGTQVTVSS | high polyreactivity
QVQLVESGGGLVHAGGSLRLRCAASGSIFYDNAMGWYTQAPWKERELVASIRWSGDSTYYADSVKGRFTISRDNAKNTVYLQMTSLKPEDTAVYYCAADPVEPYFTAIAYGYWGQGTQVTVSS | low polyreactivity
QVQLVESGAGLVQAGGSLRLSCAASRRIIYKYAMGWYSQAPGKERELVAAITSGGSTYYADSVKGRYTISRDNAKNTVDLQMNSLKPQDTAVYYCAASYARLSVWYDYWRQGTQVTVSS | high polyreactivity
QVQLVESGGGLVQAGGSLRISCAPSGGILYHYVMGWYRQAPGTERELVAAISRAGRTYYADSVKGRFTISRDNAKNTVYLQMNSLKPEDTAVYYCNAYFRYFYWGLGTQVTVSS | high polyreactivity
QVQLVESGGGLVQAGGSLRLSCAASGRIFSFYTMGWYRQAPGKERELVAAITWSGGSTYYADSVKGRFTISRDNAKNTVYLQMNSLKPEDTAVYYCAADFYLGPTWYYYWGQGTQVTVSS | high polyreactivity
QVQLVESGGGLVQAGASLRLSCAASGIIVHEYAMGWYRQAPGKERELVASISWNDGSTYADSVKGRFTISRDNAKITVYLQMNCLKPEDTAVYYCAADYPYYPFSSIYDYWGQGTQVTVSS | low polyreactivity
QVQLVESGGGLVQAGGSLRLSCAASGRTFEQNAMGWYRQAPGKEREFVAAITASSGRTSYADSVKGRFTISRDNAKNTVYLQMNSLKPEDTAVYDCAADLADRERRHNYWGQGTQVTVSS | low polyreactivity
